Assay results: patent US20190041402A1 (GOVERNING COUNCIL OF THE UNIVERSITY OF TORONTO, published 2019)

Legend:
[1] = molecular target: T1, soluble human αKlotho (recombinant) (human, UniProt Q9UEF7 34-981); assay: competitive Fab-phage ELISA, soluble human αKlotho against immobilised human αKlotho
T1 construct: also called Hu aKL; recombinant human αKlotho
T1 sequence (looked up): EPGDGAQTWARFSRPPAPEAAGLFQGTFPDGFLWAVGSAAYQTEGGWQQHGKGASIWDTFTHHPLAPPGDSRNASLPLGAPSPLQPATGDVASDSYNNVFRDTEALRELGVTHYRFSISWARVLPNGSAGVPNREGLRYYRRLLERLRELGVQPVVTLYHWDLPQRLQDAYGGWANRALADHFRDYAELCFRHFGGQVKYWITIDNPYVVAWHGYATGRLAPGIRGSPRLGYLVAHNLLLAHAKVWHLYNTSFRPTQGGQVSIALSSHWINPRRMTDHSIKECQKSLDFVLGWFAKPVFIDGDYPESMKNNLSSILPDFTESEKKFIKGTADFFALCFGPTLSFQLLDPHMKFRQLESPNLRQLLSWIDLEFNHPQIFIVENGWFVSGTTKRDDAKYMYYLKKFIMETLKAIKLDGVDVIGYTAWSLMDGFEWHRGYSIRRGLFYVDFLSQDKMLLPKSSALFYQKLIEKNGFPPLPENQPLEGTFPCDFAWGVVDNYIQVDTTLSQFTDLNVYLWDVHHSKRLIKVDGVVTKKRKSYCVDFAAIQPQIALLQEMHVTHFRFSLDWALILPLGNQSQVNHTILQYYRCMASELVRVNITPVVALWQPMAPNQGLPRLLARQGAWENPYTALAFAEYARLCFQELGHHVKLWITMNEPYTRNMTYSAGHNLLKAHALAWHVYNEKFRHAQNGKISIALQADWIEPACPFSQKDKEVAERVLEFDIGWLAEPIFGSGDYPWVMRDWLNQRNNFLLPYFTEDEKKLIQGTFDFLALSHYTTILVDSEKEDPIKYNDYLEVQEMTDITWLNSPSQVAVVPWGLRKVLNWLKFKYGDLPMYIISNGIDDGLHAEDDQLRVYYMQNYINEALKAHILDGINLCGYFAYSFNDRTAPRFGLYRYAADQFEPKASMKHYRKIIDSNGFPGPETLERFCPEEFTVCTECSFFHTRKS
Description: (A) CDR sequences and VH domain framework region residues variable in Library F for anti-αKlotho sb106, according to the IMGT (international ImMunoGeneTics database) numbering scheme. IMGT CDR residues are underlined, IMGT framework region residues are not underlined, residues at IMGT positions which were randomized in the selection library are bold. (B) Specificity determination of anti-αKlotho sb106 by Fab-phage ELISA: sb106 Fab-phage were incubated with the following immobilized antigens: a complex of FGFR1c/αKlotho complex (aKL-R1), FGFR1c alone (R1), human αKlotho (Hu aKL) and mouse αKlotho (Mu aKL), or neutravidin (NA) and bovine serum albumin (BSA) as negative controls. After washing off unbound phage, bound phages were detected using an HRP-conjugated anti-phage antibody. Colorimetric HRP reagents allow for absorbance readings at 450 nm. […] The binding signals to immobilized human αKlotho reported are an average of two data sets.
Binding selections, phage ELISAs and Fab protein purification were performed as described. Briefly, phage from library F were cycled through rounds of panning with the binary complex of αKlotho extracellular domain and FGFR1c ligand-binding domain on 96-well Maxisorp Immunoplates (Fisher Scientific, Nepean, ON, Canada) as the capture target. […]

[2] = molecular target: T2, mouse αKlotho (mouse, UniProt O35082 35-982); assay: SPR (ProteOn XPR36), Fab captured by anti-IgG(H+L), mouse αKlotho injected in serial dilutions, Langmuir fit
T2 construct: also called Mu aKL
T2 sequence (looked up): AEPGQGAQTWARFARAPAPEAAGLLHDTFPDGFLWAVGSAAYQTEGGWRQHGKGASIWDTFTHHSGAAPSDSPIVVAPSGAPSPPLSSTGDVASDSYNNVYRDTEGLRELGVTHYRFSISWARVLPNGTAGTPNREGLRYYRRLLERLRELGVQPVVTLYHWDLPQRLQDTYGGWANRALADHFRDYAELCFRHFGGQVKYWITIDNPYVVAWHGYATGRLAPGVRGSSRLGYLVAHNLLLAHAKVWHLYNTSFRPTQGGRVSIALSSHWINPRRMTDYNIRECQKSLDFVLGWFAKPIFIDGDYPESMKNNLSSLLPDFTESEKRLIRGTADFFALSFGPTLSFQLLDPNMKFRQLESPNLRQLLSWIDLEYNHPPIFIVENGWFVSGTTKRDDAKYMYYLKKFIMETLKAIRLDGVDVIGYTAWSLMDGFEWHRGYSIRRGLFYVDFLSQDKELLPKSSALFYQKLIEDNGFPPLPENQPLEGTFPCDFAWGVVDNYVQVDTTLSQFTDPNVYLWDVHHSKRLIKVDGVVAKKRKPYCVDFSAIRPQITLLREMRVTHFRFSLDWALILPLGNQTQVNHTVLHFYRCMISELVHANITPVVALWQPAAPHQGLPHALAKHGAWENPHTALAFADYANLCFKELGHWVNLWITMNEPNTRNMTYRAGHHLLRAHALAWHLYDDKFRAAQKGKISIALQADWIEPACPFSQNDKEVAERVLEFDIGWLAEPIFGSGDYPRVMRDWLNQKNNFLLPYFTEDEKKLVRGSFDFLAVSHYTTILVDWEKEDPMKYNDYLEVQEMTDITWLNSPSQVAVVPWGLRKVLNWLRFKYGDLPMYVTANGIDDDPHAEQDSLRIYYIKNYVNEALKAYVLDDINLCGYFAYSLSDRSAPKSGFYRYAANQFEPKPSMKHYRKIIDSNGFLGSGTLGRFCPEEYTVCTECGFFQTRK
Description: (§1) Estimated affinities against human and mouse antigen for select αKlotho Fabs were obtained by surface plasmon resonance on a ProteOn XPR36 (FIG. 17). Fabs were captured using an anti-IgG(H+L) antibody and serial dilutions of αKlotho were injected. Binding curves were fitted to the Langmuir model. (A) Determined Kon, Koff and KD values. (B) and (C) Binding curves for human and mouse antigen respectively.

[3] = molecular target: T1, soluble human αKlotho (recombinant); assay: SPR (ProteOn XPR36), Fab captured by anti-IgG(H+L), human αKlotho injected in serial dilutions, Langmuir fit [continued) B.]
Description: as §1

B1: sb106 Fab (Fab, V domains shown)
VH: EVQLVESGGGLVQPGGSLRLSCAASGFNISYYSIHWVRQAPGKGLEWVAYISPSYGYTSYADSVKGRFTISADTSKNTAYLQMNSLRAEDTAVYYCARYYVYASHGWAGYGMDYWGQGTLVTVSS
VL: DIQMTQSPSSLSASVGDRVTITCRASQSVSSAVAWYQQKPGKAPKLLIYSASSLYSGVPSRFSGSRSGTDFTLTISSLQPEDFATYYCQQAGYSPITFGQGTKVEIKR
notes: also called Fsb106; clone 48
IC50 [1]: 1.7 nM
Kd [2]: 0.784 nM
koff [2]: 0.000159 s⁻¹
kon [2]: 202000 M⁻¹ s⁻¹
Kd [3]: 1.02 nM
koff [3]: 0.000315 s⁻¹
kon [3]: 308000 M⁻¹ s⁻¹
